Assay results: publication PMC4917820, “Structural basis for autoinhibition and its relief of MOB1 in the Hippo pathway” (Scientific Reports, 2016)

Tests used:
[1] = molecular target: GST-N-terminal truncated MOB1B, N-terminal 10-residue truncated form (mouse) (UniProt Q8BPB0); assay: pull-down; GST-MOB1B and LATS1 proteins (40 μM) mixed 1:1 in 20 mM Tris-HCl (pH 7.5), 0.3 M NaCl, 1 mM DTT, applied to Glutathione Sepharose 4B, washed at 4 °C, eluted with glutathione, SDS-PAGE with Coomassie blue, band intensities
[2] = molecular target: T1, GST-MOB1B, N-terminal 32-residue truncated form (33-216) (mouse, UniProt Q8BPB0 33-216); assay: as above; conditions: both partners purified
T1 construct: MOB1B, mouse, residues 33-216; also called NΔ32; GST-N-truncated Δ32 MOB1B; source: E. coli; GST fusion, purification of this form not described; not shown: GST, N-terminal, kept
T1 sequence (looked up): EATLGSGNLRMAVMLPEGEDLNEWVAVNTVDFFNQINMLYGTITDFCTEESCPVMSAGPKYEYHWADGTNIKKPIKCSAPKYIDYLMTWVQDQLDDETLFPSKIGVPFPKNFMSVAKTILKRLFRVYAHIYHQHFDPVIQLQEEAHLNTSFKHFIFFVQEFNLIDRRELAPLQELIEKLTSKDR

[3] = molecular target: T2, double-mutant T12D/T35D MOB1B (1-216) (mouse, UniProt Q8BPB0 1-216, T12D | T35D); assay: crystal structure; 1:1 molar ratio mixture of MOB1B and LATS1 (621-703) crystallised by vapor diffusion, MES pH 6.5, PEG; conditions: both partners purified
T2 construct: MOB1B, mouse, residues 1-216, with T12D and T35D; everywhere else it is T12D/T35D; also called phosphomimic (T12D/T35D) double-mutant; MOB1B(T12/35D); source: E. coli, purified by the same procedure as full-length MOB1B (GST removed); not shown: GST, N-terminal, cleaved
T2 sequence (looked up): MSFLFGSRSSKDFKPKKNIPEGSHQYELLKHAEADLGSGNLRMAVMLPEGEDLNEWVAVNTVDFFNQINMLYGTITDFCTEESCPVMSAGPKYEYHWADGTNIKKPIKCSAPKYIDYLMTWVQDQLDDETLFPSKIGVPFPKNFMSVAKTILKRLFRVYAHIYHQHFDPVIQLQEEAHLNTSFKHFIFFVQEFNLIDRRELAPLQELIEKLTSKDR

[4] = molecular target: T3, N-terminal truncated MOB1B (33-216) (mouse, UniProt Q8BPB0 33-216); assay: as above; conditions: both partners purified
T3 construct: MOB1B, mouse, residues 33-216; also called N-terminal 32-residue truncated form; N-truncated MOB1B; source: E. coli, purified (Glutathione Sepharose 4B, HRV 3C digestion, HiTrap Q gradient, Superdex 75pg); not shown: GST, N-terminal, cleaved
T3 sequence (looked up): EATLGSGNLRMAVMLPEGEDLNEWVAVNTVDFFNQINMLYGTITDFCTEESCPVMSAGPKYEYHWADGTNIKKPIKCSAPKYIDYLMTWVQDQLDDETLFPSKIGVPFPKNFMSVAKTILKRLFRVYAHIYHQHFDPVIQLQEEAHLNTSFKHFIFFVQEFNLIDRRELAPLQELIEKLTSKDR

Molecule: NTR domain of LATS1 (limits not told for this experiment) (domain or fragment)
- relative autoinhibition of LATS1 binding (full length 100%, NΔ32 0%) [1]: 66%

B1: NTR domain (residues 621-703) of LATS1 (domain or fragment, mouse, UniProt Q8BYR2 621-703, looked up)
chain: KDEERRESRIQSYSPQAFKFFMEQHVENVLKSHQQRLHRKKQLENEMMRVGLSQDAQDQMRKMLCQKESNYIRLKRAKMDKSM
notes: also called N-terminal regulation (NTR) domain of LATS1; source: E. coli BL21 (DE3) Star, resolubilized from the insoluble fraction, purified (Ni-NTA, HiTrap SP, Superdex 75pg)
- binding result [2]: binds
- binding result [3]: binds
- binding result [4]: binds

B2: NTR domain (residues 604-703) of LATS1 (domain or fragment, mouse, UniProt Q8BYR2 604-703, looked up)
chain: KEKKQITTSPITVRKNKKDEERRESRIQSYSPQAFKFFMEQHVENVLKSHQQRLHRKKQLENEMMRVGLSQDAQDQMRKMLCQKESNYIRLKRAKMDKSM
notes: also called wild-type; source: E. coli BL21 (DE3) Star, resolubilized from the insoluble fraction, purified (Ni-NTA, HiTrap SP, Superdex 75pg)
- binding result [2]: binds

B3: NTR domain (604-703) of LATS1, S689E (domain or fragment, mouse, UniProt Q8BYR2 604-703, looked up)
chain: KEKKQITTSPITVRKNKKDEERRESRIQSYSPQAFKFFMEQHVENVLKSHQQRLHRKKQLENEMMRVGLSQDAQDQMRKMLCQKEENYIRLKRAKMDKSM
notes: also called phosphomimetic substitution; source: E. coli, resolubilized, purified (Ni-NTA, Superdex 75pg)
- binding relative to the wild-type [2]: < 10%

B4: NTR domain (604-703) of LATS1, R696A (domain or fragment, mouse, UniProt Q8BYR2 604-703, looked up)
chain: KEKKQITTSPITVRKNKKDEERRESRIQSYSPQAFKFFMEQHVENVLKSHQQRLHRKKQLENEMMRVGLSQDAQDQMRKMLCQKESNYIRLKAAKMDKSM
notes: source: E. coli, resolubilized, purified (Ni-NTA, Superdex 75pg)
- binding relative to the wild-type [2]: < 20%

B5: NTR domain (604-703) of LATS1, R656A (domain or fragment, mouse, UniProt Q8BYR2 604-703, looked up)
chain: KEKKQITTSPITVRKNKKDEERRESRIQSYSPQAFKFFMEQHVENVLKSHQQALHRKKQLENEMMRVGLSQDAQDQMRKMLCQKESNYIRLKRAKMDKSM
notes: as for B4
- binding relative to the wild-type [2]: < 20%

B6: NTR domain (604-703) of LATS1, R693A (domain or fragment, mouse, UniProt Q8BYR2 604-703, looked up)
chain: KEKKQITTSPITVRKNKKDEERRESRIQSYSPQAFKFFMEQHVENVLKSHQQRLHRKKQLENEMMRVGLSQDAQDQMRKMLCQKESNYIALKRAKMDKSM
notes: as for B4
- binding relative to the wild-type [2]: < 20%
